Values of other authors, collected in PMC3720604.

Target: CK2β (Homo sapiens) (UniProt P67870)
Sequence of UniProt P67870 (P67870 2-215): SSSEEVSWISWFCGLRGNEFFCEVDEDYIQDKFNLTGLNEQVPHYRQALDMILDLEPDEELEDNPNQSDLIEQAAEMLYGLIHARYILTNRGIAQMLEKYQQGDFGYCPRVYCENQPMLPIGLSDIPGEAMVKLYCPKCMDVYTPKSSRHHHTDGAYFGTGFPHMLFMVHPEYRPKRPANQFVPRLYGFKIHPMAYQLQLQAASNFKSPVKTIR

Kd: 45.5 nM
Substance: CK2α′ (from UniProt P19784)
